In paper PMC7687109, “Effect of structural stability on endolysosomal degradation and T‐cell reactivity of major shrimp allergen tropomyosin” (Allergy, 2020):

Assays:
Experiment in all cases: SEC-MALS; purified recombinant tropomyosin, neutral pH (pH 7.4), constant temperature of 25°C; molar mass from the peaks
[1] = biological target: Der p 10 (house dust mite tropomyosin) (Dermatophagoides pteronyssinus)
[2] = biological target: Pen m 1 (black tiger shrimp tropomyosin) (Penaeus monodon)
[3] = biological target: the molecule itself

Molecule: Der p 10 (house dust mite tropomyosin) (natural protein)
- stoichiometry N [1]: 2

Molecule: Pen m 1 (black tiger shrimp tropomyosin) (natural protein)
- stoichiometry N [2]: 2

B1: Bla g 7 (German cockroach tropomyosin) (natural protein, Blattella germanica, UniProt Q9NG56 1-284, looked up)
chain: MDAIKKKMQAMKLEKDNAMDRALLCEQQARDANIRAEKAEEEARSLQKKIQQIENDLDQTMEQLMQVNAKLDEKDKALQNAESEVAALNRRIQLLEEDLERSEERLATATAKLAEASQAADESERARKILESKGLADEERMDALENQLKEARFMAEEADKKYDEVARKLAMVEADLERAEERAETGESKIVELEEELRVVGNNLKSLEVSEEKANLREEEYKQQIKTLNTRLKEAEARAEFAERSVQKLQKEVDRLEDELVHEKEKYKYICDDLDMTFTELIGN
- stoichiometry N [3]: 2

B2: Ani s 3 (Anisakis tropomyosin) (natural protein, Anisakis simplex, UniProt Q9NAS5 1-284, looked up)
chain: MDAIKKKMQAMKIEKDNALDRADAAEEKVRQMTDKLERIEEELRDTQKKMMQTENDLDKAQEDLSTANSNLEEKEKKVQEAEAEVAALNRRMTLLEEELERAEERLKLATAKLEEATHTADESERVRKVMENRSFQDEERANTVESQLKEAQMLAEEADRKYDEVARKLTMVEADLERAEERAETGENKIVELEEELRVVGNNLKSLEVSEEKALQREDSYEEQIRTVSARLKEAETRAEFAERSVQKLQKEVDRLEDELVHEKERYKSISEELDQTFQELSGY
notes: also called fish parasite tropomyosin
- stoichiometry N [3]: 2
